Several values for one entry are separate records, joined by “and”; a condition that tells them apart may be missing. Equal entries are not always repeated.
What was measured:
Type in all cases: in vivo, human
[1] = test system: peripheral B cells, T cells, NK cells, monocytes; experiment: Phase 1/1B clinical trial: circulating lymphocyte subsets in whole blood by flow cytometry
Experimental: (§1) The highest line at day 10 represents 1 mg/kg, the second highest line at day 10 represents 3 mg/kg, the second lowest line at day 10 represents 6 mg/kg, and the lowest line at day 10 represents 12 mg/kg.
Whole blood was collected pre-treatment or at 0.5 hr or 24 hr after administration of CPI-006 as a single agent (left) or in combination with CPI-444 (right). The absolute number of CD19+ B cells, CD3+ T cells, CD3+CD4+ T cells, CD3+CD8+ T cells, and CD3−CD16+CD56+ NK cells were determined by flow cytometry with quantification beads.
Blood was collected pre-treatment or 0.5 hr after administration of CPI-006. The absolute number of CD19^+ B cells, as well as the percentage of B cells positive for CD73, were determined using flow cytometry.
Whole blood samples from the patients treated with a single dose (i.e., 1 mg/kg, 3 mg/kg, or 6 mg/kg) of CPI-006 monotherapy were analyzed by flow cytometry to further evaluate immunomodulatory effects. Levels of B cells (CD19+CD3−) are reported as a percent of total lymphocytes (gated based on scatter properties), as shown in FIG. 4A. CD73 expression was evaluated with a non-competing anti-CD73 antibody and is reported on B cells (CD19+CD3−) and T cells (CD19−CD3+), as shown in FIG. 4B. Purified B cells from healthy human donors were incubated with CPI-006 or human IgG1 isotype control at concentrations of 0.1 μg/mL, 1 μg/mL, and 10 μg/mL for 30 minutes.

[2] = Phase 1/1B clinical trial: adverse events, tolerability
Text: The primary objectives of the study were to show safety and tolerability of the active agents, and the second objectives of the study were to identify PK/PD profiles, drug efficacy, and biomarkers. […] The adenosine gene signature was not used to select patients. The dose expansion includes treatment of non-small cell lung cancer, renal cell carcinoma, non-Hodgkin's lymphoma, and other types of cancers (e.g., bladder, prostate, pancreatic, colorectal, squamous cell cancer of the head and neck). CPI-006 was given as a one hour infusion every three weeks, and for the combination treatments 100 mg po BID of ciforadenant was administered. Biomarker assessment was conducted for the effects of CD73 expression in tumors, peripheral blood lymphocyte subsets, antibody occupancy of target, and serum cytokines.
The baseline demographics of the patients are shown in Table 2 below, and the adverse events are shown in Table 3 (where TEAE refers to treatment-related adverse events based on any grade 3 or 4 events, or 2 or more of all grades).

solid tumors = experiment: Phase 1/1B clinical trial: disease control and tumor size
Text: FIGS. 6A-6B show cancer patients being treated with various doses of CPI-006 alone (FIG. 6A) or a combination therapy of CPI-006 and ciforadenant (FIG. 6B). A cycle is once every 21 days. Disease assessment occurred every 3-4 cycles. […] HDNCK refers to head and neck cancer. mCRPC refers to metastatic castration-resistant prostate cancer. BLADD refers to bladder cancer. PANC refers to pancreatic cancer. COLORECT refers to colorectal cancer. RCC refers to renal cell carcinoma. SD indicates stable disease and PD indicates progressive disease.
as §1
Cancer patients treated with CPI-006 monotherapy or a combination therapy of CPI-006 and ciforadenant were assessed for disease control.

[3] = Phase 1/1B clinical trial: serum levels of free CPI-006 by ELISA
Experimental: FIGS. 3A-3D show the pharmacokinetics/pharmacodynamics and CD73 receptor occupancy of CPI-006 after a first infusion in human patients. […] The dotted line marks one-hundred percent occupancy CD73 receptor occupancy.
With reference to Table 1, serum samples were collected from patients treated with CPI-006 alone (i.e., monotherapy) and levels of free CPI-006 were measured by ELISA, as shown in FIG. 3A. Whole blood samples from patients treated with CPI-006 alone were fixed and receptor occupancy was measured by flow cytometry gating on CD73+CD8 T cells, as shown in FIG. 3B. As illustrated in FIGS. 3A-3D, receptor exposure to CPI-006 increases and clearance decreases with increasing doses of CPI-006, and CIP-006 is detectable for 21 days after administration of a single dose of 6 mg/kg or higher. […] Other results from the study are described below and in Table 4. BLQ is below limit of quantification. TBD is to be determined.

[4] = cancer patients, monotherapy n = 12, combination n = 8
[5] = with increasing doses of CPI-006, first infusion, FIGS. 3A-3D

B1: CPI-006: humanized CD73 antibody, wherein the light chain is SEQ ID NO:8 and the heavy chain is SEQ ID NO:7; IgG1 Fcγ receptor-deficient (antibody, V domains shown)
VH: QVQLVQSGAEVEKPGASVKVSCKASGYTFTSYWITWVRQAPGQGLEWMGDIYPGSGNTNYNEKFKTRVTITADKSTSTAYMELSSLRSEDTAVYYCAKEGGLTTEDYALDYWGQGTLVTV
VL: EIVLTQSPATLSLSPGERATLSCRASKNVSTSGYSYMHWYQQKPGQAPRLLIYLASNLESGIPPRFSGSGYGTDFTLTINNIESEDAAYYFCQHSRELPFTFGQGTKVEIK
**Q.** With B1 as the molecule, how does the “% Decrease of Peripheral B cells at C1D1 (0.5 h)” value ([1]; 3 mg/kg, patients 4-6 (Pancreatic, Pancreatic, Prostate)) read?
**A.** 71.2% and 62.3% and 68.1%

**Q.** What about the “CD73POS B cells levels over time” value ([1]; 1 to 12 mg/kg, repeated infusions, FIG. 7C) of the same molecule?
**A.** decrease with each infusion of CPI-006, and then partially return to a new steady state level

**Q.** What about the “CD4/CD8 ratios, including CD73NEG subsets” value ([1]; 0.5 hours after administration, FIGS. 7A-7B) of the same molecule?
**A.** increase

**Q.** What about the “number of circulating cells, all evaluated lymphocyte subsets (B, T, CD4+ T, CD8+ T, NK)” value ([1]; 0.5 hr post-treatment versus pre-treatment, FIG. 12) of the same molecule?
**A.** decreased

**Q.** And the “number of circulating CD73+ B cells” value ([1]; 0.5 hr post-treatment, FIG. 13)?
**A.** substantially decreased

**Q.** What about the “number of circulating CD73− B cells” value ([1]; 0.5 hr post-treatment, FIG. 13) of the same molecule?
**A.** either unchanged or modestly decreased

**Q.** What about the “number of circulating B cells” value ([1]; 24 hr post-treatment, FIG. 12) of the same molecule?
**A.** partial return

**Q.** And the “number of circulating cells, other cell types (T, NK)” value ([1]; 24 hr post-treatment, FIG. 12)?
**A.** returned to near baseline levels

**Q.** What about the HLA-DR expression ([1]; cancer patients receiving 6 mg/kg monotherapy, FIG. 7D) of the same molecule?
**A.** increase in HLA-DR expression, followed by a gradual decrease

**Q.** And the B lymphocyte trafficking ([1]; clinical data, FIGS. 4A-4B)?
**A.** transient redistribution of B cells

**Q.** What about the “CD73NEG B cells” value ([1]; following treatment) of the same molecule?
**A.** No significant changes

**Q.** And the “Adverse Events Number of Patients: Anemia, All Grades” value [2, 4]?
**A.** 1

**Q.** And the “Adverse Events Number of Patients: Anemia, Grade 3 or 4” value [2, 4]?
**A.** 1

**Q.** And the “Adverse Events Number of Patients: Chills, All Grades” value [2, 4]?
**A.** 4

**Q.** What about the “Adverse Events Number of Patients: Chills, Grade 3 or 4” value [2, 4] of the same molecule?
**A.** 0

**Q.** What about the “Adverse Events Number of Patients: Diarrhea, All Grades” value [2, 4] of the same molecule?
**A.** 1

**Q.** What about the “Adverse Events Number of Patients: Diarrhea, Grade 3 or 4” value [2, 4] of the same molecule?
**A.** 0

**Q.** And the “Adverse Events Number of Patients: Fatigue, All Grades” value [2, 4]?
**A.** 2

**Q.** What about the “Adverse Events Number of Patients: Fatigue, Grade 3 or 4” value [2, 4] of the same molecule?
**A.** 0

**Q.** And the “Adverse Events Number of Patients: Headache, All Grades” value [2, 4]?
**A.** 2

**Q.** And the “Adverse Events Number of Patients: Headache, Grade 3 or 4” value [2, 4]?
**A.** 0

**Q.** What about the “Adverse Events Number of Patients: Infusion-related reaction, All Grades” value [2, 4] of the same molecule?
**A.** 2

**Q.** What about the “Adverse Events Number of Patients: Infusion-related reaction, Grade 3 or 4” value [2, 4] of the same molecule?
**A.** 0

**Q.** And the “Adverse Events Number of Patients: Nausea, All Grades” value [2, 4]?
**A.** 3

**Q.** And the “Adverse Events Number of Patients: Nausea, Grade 3 or 4” value [2, 4]?
**A.** 0

**Q.** And the “Adverse Events Number of Patients: Pruritus, All Grades” value [2, 4]?
**A.** 2

**Q.** And the “Adverse Events Number of Patients: Pruritus, Grade 3 or 4” value [2, 4]?
**A.** 0

**Q.** And the “Adverse Events Number of Patients: Subjects with any TEAE, All Grades” value [2, 4]?
**A.** 8

**Q.** What about the “Adverse Events Number of Patients: Subjects with any TEAE, Grade 3 or 4” value [2, 4] of the same molecule?
**A.** 1

**Q.** What about the dose-limiting toxicity ([2]; doses of 1, 3, and 6 mg/kg) of the same molecule?
**A.** no dose-limiting toxicity

**Q.** What about the tolerability ([2]; doses of 1, 3, and 6 mg/kg) of the same molecule?
**A.** well tolerated

**Q.** What about the “grade 3/4 adverse events” value ([2]; patients of Table 4, CPI-006 monotherapy 1, 3, 6 mg/kg) of the same molecule?
**A.** No grade 3/4 adverse events were reported

**Q.** And the “size of a prostate tumor” value (solid tumors; after 2 cycles of treatment, i.e., after 42 days, FIG. 7E)?
**A.** reduction in the size

**Q.** And the disease control (solid tumors; cancer patients, cycle once every 21 days, FIGS. 6A-6B)?
**A.** higher doses of CPI-006 monotherapy provide longer term disease control

**Q.** What about the target lesion (solid tumors; one metastatic prostate cancer patient, 6 mg/kg monotherapy, treatment ongoing through 11 cycles, FIG. 7E) of the same molecule?
**A.** decrease in the target legion

**Q.** And the “Serum CPI-006 at C1D8” value ([3]; 1 mg/kg, patients 1-3, BLQ is below limit of quantification)?
**A.** BLQ

**Q.** What about the “Serum CPI-006 at C1D8” value ([3]; 6 mg/kg, patient 7 (Colorectal)) of the same molecule?
**A.** 23.60 µg/mL

**Q.** What about the PK dose dependence ([3]; clinical data, 1, 3, and 6 mg/kg) of the same molecule?
**A.** dose proportional

**Q.** What about the “time detectable in serum after administration” value ([3]; single dose of 6 mg/kg or higher) of the same molecule?
**A.** 21 days

**Q.** And the clearance [3, 5]?
**A.** decreases

**Q.** And the “exposure to CPI-006” value [3, 5]?
**A.** increases

From patent US20220242963A1, “B-CELL ACTIVATING CD73 ANTIBODIES” (CORVUS PHARMACEUTICALS, INC., priority 2018, published 2022)
